Reference: PMC12412785

Key:
[1] = target: PpRAD51-2, purified recombinant (P. patens)
[2] = test system: PpBRCA2-NterT138 (Physcomitrium patens); test: BLI; conditions: text cites Fig. 7B; Kd in Fig. 7C not in text; EMSA: 10 mM Tris-HCl pH 7.5, 50 mM NaCl, 5 mM MgCl2, 2 mM ATP, 1 mM DTT, 37 C, 7 min (RAD51/DMC1 15 min), 0.01% glutaraldehyde; BLI: 25 mM Tris pH 7.5, 100 mM …
[3] = target: 6His-PpBRCA2-Cter (amino acids 251–391) (P. patens); test: BLI; 6His-PpBRCA2-Cter immobilised on Ni-NTA biosensors, PpRAD51-2 in solution (1.88–30 nM); buffer A with 0.1% Tween-20; 25°C
[4] = target: biotinylated PpBRCA2-BRC1 peptide (P. patens); test: BLI; biotinylated BRC peptides (0.5 μM) immobilised on streptavidin biosensors, PpRAD51-2 in solution in two-fold serial dilutions; 25°C; buffer A (25 mM Tris pH 7.5, 100 mM Na2SO4, 5 mM β-mercaptoethanol) with 0.05% Tween-20; Kd in steady-state mode
[5] = target: biotinylated PpBRCA2-BRC2 peptide (P. patens); test: as above
[6] = target: biotinylated PpBRCA2-BRC4 peptide (P. patens); test: as above

Substance: 6His-PpBRCA2-Cter (amino acids 251–391) (domain or fragment)
- concentration needed for complete inhibition of PpRAD51-ssDNA filament formation (EMSA; 1 μM RAD51-2, 3 μM 100 nt ssDNA, 0–4 μM PpBRCA2-Cter) [1]: 2 µM

Substance: 100 nt ssDNA (BLI)
- fold decrease in affinity relative to PpBRCA2-Nter (fold weaker affinity than PpBRCA2-Nter) [2]: 50

Substance: PpRAD51-2, purified recombinant (natural protein)
- Kd [3]: 0.0043 µM
- Kd [4]: 0.4 µM
- Kd [5]: 0.8 µM
- Kd [6]: 0.4 µM

Substance: biotinylated PpBRCA2-BRC4 peptide
- concentration needed for complete inhibition of PpRAD51-ssDNA filament formation (EMSA; 1 μM RAD51-2, 3 μM 100 nt ssDNA, 0–4 μM PpBRCA2-BRC4) [1]: > 4 µM
